{"source": "patent US20220332804A1", "about": "(CSL INNOVATION, published 2022)", "experiment_in_all_cases": "SPR, KD relative to WT C2;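 further: biacore SPR at 37 °C, anti-C2 mAbs captured via immobilised goat anti-human IgG, C2 alanine or serine surface mutants as analytes, 1:1 model fitted, double-referenced sensograms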", "key": {"human C2 K676S": {"molecular_target": "T1, human C2 K676S (human, UniProt P06681 21-752)", "T1 sequence": "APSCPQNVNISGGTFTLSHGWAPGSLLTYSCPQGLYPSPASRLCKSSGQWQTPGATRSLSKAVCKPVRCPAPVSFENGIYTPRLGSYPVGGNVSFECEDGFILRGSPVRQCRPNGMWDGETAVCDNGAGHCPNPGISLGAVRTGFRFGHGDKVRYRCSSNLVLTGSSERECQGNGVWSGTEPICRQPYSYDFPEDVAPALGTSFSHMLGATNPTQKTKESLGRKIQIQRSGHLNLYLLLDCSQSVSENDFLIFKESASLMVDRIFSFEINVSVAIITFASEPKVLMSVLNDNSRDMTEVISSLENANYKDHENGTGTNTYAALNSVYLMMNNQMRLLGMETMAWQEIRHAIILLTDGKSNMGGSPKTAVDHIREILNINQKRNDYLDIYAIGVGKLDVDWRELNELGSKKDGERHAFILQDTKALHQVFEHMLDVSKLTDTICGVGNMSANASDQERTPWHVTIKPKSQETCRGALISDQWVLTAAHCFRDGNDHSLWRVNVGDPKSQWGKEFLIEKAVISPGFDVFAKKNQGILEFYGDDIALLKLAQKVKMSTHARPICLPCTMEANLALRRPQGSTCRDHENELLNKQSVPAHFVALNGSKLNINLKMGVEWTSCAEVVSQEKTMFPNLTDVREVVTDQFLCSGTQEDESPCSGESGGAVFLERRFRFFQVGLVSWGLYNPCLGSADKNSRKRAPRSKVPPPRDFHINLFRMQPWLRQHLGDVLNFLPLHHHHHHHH"}, "human C2 R519A": {"molecular_target": "T2, human C2 R519A (human, UniProt P06681 21-752)", "T2 sequence": "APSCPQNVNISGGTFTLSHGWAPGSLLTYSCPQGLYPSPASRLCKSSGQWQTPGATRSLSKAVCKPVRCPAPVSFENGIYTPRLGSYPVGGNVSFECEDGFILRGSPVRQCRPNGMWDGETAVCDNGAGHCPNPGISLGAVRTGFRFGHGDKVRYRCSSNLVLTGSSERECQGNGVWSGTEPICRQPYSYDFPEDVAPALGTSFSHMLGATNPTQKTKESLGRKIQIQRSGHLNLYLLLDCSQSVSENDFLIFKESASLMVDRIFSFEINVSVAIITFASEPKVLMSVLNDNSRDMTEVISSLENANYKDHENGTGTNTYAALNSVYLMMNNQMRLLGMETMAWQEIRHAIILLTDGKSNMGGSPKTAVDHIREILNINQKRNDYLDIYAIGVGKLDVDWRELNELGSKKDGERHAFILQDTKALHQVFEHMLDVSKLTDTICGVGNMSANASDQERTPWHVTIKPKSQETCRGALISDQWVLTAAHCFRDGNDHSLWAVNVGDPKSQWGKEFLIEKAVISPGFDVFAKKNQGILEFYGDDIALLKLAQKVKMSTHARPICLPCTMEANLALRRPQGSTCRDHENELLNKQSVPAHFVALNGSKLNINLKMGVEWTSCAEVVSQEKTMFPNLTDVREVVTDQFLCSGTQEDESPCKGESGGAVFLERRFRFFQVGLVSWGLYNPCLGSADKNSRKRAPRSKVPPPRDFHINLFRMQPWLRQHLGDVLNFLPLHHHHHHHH"}, "human C2 M316A": {"molecular_target": "T3, human C2 M316A (human, UniProt P06681 21-752)", "T3 sequence": "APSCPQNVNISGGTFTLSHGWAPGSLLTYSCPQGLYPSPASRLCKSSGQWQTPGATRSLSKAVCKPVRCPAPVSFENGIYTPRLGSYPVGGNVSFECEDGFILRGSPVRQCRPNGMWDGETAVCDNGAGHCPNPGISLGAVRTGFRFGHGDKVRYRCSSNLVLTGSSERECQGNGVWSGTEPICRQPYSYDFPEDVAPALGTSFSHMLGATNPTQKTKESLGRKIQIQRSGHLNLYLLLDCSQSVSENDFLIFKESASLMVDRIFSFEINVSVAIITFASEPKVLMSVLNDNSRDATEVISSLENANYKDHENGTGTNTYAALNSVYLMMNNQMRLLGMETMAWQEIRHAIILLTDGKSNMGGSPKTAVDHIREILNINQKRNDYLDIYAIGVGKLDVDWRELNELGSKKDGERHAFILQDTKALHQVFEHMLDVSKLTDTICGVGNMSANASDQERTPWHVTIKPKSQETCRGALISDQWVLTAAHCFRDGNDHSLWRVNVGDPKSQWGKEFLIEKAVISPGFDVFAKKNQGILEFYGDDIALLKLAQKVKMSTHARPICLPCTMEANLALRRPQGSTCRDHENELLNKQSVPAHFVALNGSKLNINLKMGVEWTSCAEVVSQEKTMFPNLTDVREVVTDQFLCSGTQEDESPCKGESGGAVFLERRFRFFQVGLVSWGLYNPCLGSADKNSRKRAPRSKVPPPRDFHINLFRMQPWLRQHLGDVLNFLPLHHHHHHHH"}, "human C2 T317A": {"molecular_target": "T4, human C2 T317A (human, UniProt P06681 21-752)", "T4 sequence": "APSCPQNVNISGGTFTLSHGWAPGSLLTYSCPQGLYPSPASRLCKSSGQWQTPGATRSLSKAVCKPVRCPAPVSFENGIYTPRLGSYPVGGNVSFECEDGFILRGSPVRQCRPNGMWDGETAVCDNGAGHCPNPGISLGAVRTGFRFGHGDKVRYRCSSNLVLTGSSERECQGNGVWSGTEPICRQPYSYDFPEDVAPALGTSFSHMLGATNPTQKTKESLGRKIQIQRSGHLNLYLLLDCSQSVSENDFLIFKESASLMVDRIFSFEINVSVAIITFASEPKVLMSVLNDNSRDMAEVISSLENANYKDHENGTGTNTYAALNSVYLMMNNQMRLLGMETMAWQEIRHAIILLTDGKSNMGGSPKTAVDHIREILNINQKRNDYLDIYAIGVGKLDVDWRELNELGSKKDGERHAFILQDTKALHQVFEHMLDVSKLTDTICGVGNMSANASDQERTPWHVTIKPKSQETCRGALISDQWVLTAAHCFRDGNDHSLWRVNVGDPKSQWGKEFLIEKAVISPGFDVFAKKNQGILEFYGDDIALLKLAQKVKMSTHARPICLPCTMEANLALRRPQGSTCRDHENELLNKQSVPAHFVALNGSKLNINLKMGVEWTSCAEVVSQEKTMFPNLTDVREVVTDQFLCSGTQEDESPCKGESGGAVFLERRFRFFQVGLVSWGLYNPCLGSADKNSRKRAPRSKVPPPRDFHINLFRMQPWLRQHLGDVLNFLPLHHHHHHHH"}}, "data": [{"binder": "RF16-226 (antibody, human IgG4 S228P, lambda, pH-dependent anti-C2 antibody from a phage display library; also called WT) heavy: not shown light: SYELTQPPSVSVSPGQTARITCSGDALTSKYVAWYQQKSGLAPLLVIYEDTRRPSGIPAKFSGSSSGSVATLTISGAHGDDEADYYCYSTDASGHQRVFGGGTKLTVLSQPKAAPSVTLFPPSSEELQANKATLVCLISDFYPGAVTVAWKADGSPVKAGVETTKPSKQSNNKYAASSYLSLTPEQWKSHRSYSCQVTHEGSTVEKTVAPTECS", "values": [{"measurement": "Fold diff", "setting": "human C2 K676S", "result": 2, "unit": "fold"}, {"measurement": "Fold diff", "setting": "human C2 R519A", "result": 1, "unit": "fold"}, {"measurement": "Fold diff", "setting": "human C2 M316A", "result": 1, "unit": "fold"}, {"measurement": "Fold diff", "setting": "human C2 T317A", "result": 1, "unit": "fold"}]}]}
